Assay results published in a protein production outcome set (Wang et al. 2014).

Experiment: label from the status in PepcDB records

Sequence	protein production
MWNATPSEEPGFNLTLADLDWDASPGNDSLGDELLQLFPAPLLAGVTATCVALFVVGIAGNLLTMLVVSRFRELRTTTNLYLSSMAFSDLLIFLCMPLDLVRLWQYRPWNFGDLLCKLFQFVSESCTYATVLTITALSVERYFAICFPLRAKVVVTKGRVKLVIFVIWAVAFCSAGPIFVLVGVEHENGTDPWDTNECRPTEFAVRSGLLTVMVWVSSIFFFLPVFCLTVLYSLIGRKLWRRRRGDAVVGASLRDQNHKQTVKMLGGSQRALRLSLAGPILSLCLLPSL	failed
MKNYKIILTALCFICIFSCSKTETKKSIKYKDGVYKSFANIKDDWGGTAEVEIKIEEGKIVECTFLSYEKNGNLKGPEYGKVDGVIKNMGLYKIAQASVLKAAEYGQKLIETQNIDDVDVIAGASISYKLFKDAVENALQGAMQNAKENLEHHHHHH	failed
LKLTKIIVSEAGASVYSASEIAANEFPDLDVSLRGAVSIARRLQDPLAELVKIEAKSIGVGQYQHDVNQAKLARCLDGVVEDCVNAVGVDINTASAALLSHISGLNDTLAKNIVQFRDEHGAFTNRNQLKNIHRMGEKAFQQAAGFLRIMNGDNALDASCVHPEAYPLVEKIISDKKVSIKEIIGNRELLQSINAEQYVDENFG	failed
MKQESPRLENTTPVEEKMTRSLLDHLTRLKPTRLVIFTSVFLSCLLLSLGFVFLQPATYQSYATLLTVAKTAIDQASREADIQHVAIQKQVLLGSELLTETADRLRKGDDAEAGINLTHAAIRDMLDVRPVDDTNLVEMVAEGNEPGLLPRLINTWIDVYLDARSAEIARSKGSTVEMMQEELVALTEKIQQKRLELEQFRQHNEIVSTERQDNEALARLKGLTDSLNKASEEEVKAKARLDTIRKSIERGQIVVPNEDTRTLSALERRAQELREQLEELDRQYTREYMALSPDLKVIPDKLRALEDEIQHIRRKGQTVVVSDAEQEYAAARQATRSIQEQLDQHRKKAAEFTARFTEHDALKSDLEELEQLYRDTQARLAQIEAQHTGKYPYVDVIERAFLPHHPIGPDYLWNAMIATLASLLLGLTAIWILEFLMHKEQEKLAIHLSGIHLHNQDNLPHSAFDVLPSTSVNLPRQPAQALEHTSMNGLTPQQIATLFQTANIREKQLLLLLLSGLTPDEITHLQQDDIDLEHNSLTVRSVPARTIPLHPVLAALYGKYGHCLTDPAGNRLNQEELEALLICLQIDADLSADNQISAEILRQTYILYLVRQGIRLGDLESVTGYISPTELSGYGTYAPAGTRYPVESVNLFYPIDYKQDV	failed
MVTNMVKLRNLRRLYCSSRLLRTIQNGRISSVSSISLSKKYTTKSAKEGEENVERKHEEEKKDTLKSSSVPTSRISRLFHYGSLAAGVGMNAAAKGISEVAKGNSPTWKSLILSDSNIDRITNKFSKMRGVALKIGQLLSFQDEKVLPKELYEILSRVQNSANHMPQRQLEKVMAKELGANWKTKFSKFDKIPMAAASIGQVHAAELPSGQRVVVKIQYPGVKESIDSDLNSLLMLLTASSLLPKGLFLDKTIANARTELKWECDYNREARALQKFEALLKDDPAFEVPHVFPEYTTDNIITATRMEGTEIMKLPKASQETKNFISENIMRLCLEEIATFKYMQTDPNWANFLYNGRTKKIELLDFGASRPFAEDFILKYRKLLTYATLRDRKGAYEMSVQLGYLTGLESQSMKDAHVDSVLTLGEPFRGDVDKSFDFKDQTVSDRIRGNIGLMLNERLCPPPEETYSLHRKFSGIFLLCARMGASVHCAKLFKEIFAYKV	failed
MFKSVAKLGKSPIFYLNSQRLIHIKTLTTPNENALKFLSTDGEMLQTRGSKSIVIKNTDENLINHSKLAQQIFLQCPGVESLMIGDDFLTINKDRMVHWNSIKPEIIDLLTKQLAYGEDVISKEFHAVQEEEGEGGYKINMPKFELTEEDEEVSELIEELIDTRIRPAILEDGGDIDYRGWDPKTGTVYLRLQGACTSCSSSEVTLKYGIESMLKHYVDEVKEVIQIMDPEQEIALKEFDKLEKKLESSKNTSHEK	failed
MELELDDDVFFADISKQLNLLITDEDEQNPISLSSSVSFQGLFRGNYQTSATPYMMYNEQINYNVIRESKGTGVFIPRSSQPRRKHNHHPHQKKQGRFIGSFIPKQQFPHHGHDNNLTTLNNNNQESITFHHASTNPRRTYRDAASLFT	failed
MRQTKLTKAARGRECQVRIPGVCNGNPETTVLAHYRLAGTCGVGKKPHDMQGAWCCSACHDACDGRSRAVGRETARQYHAEGVMRTQALLLNEGVLVE	not failed
MPTINQLIRYGRKPKKKKSKAPALQGNPQKRGVCIKVSTMTPKKPNSALRKIARVRLSNGIEVTAYIPGIGHNLQEHSVVLVRGGRVKDLPGVRYKIIRGALDAAGVEGRRQSRSKYGAKRPKDQKK	failed
